Like-named read-outs stand apart in the source and are kept apart here. *1 amine or outer side, *2 acyl side, *3 side chain or, on linkers, in order; H or OH if unused. Where a SMILES comes first, the peptide text is derived from it. [ ]: non-standard residue; d: D form. The star is where a group is joined. Doxorubicin(3'-N) = COc1cccc2c1C(=O)c1c(O)c3c(c(O)c1C2=O)C[C@@](O)(C(=O)CO)C[C@@H]3O[C@H]1C[C@H](N*)[C@H](O)[C@H](C)O1; PABC = O=C(OCc1ccc(N[*:1])cc1)[*:2]

We go through 2 compounds from patent US20200022997A1, “ORAL ANTICANCER PRODRUGS, THEIR PREPARATION METHODS AND APPLICATIONS” (Seoul National university R&DB Foundation, priority 2018, published 2020).

The nature of data set [1]: Toxicity evaluation: hematological and biochemical parameters and histology after one month of administration. Conditions: 2.5 mg/kg.
The conditions of data set [2]: rat, in vivo; for Cmax: Sprague Dawley.
Method: (§1) Quantitative analysis was performed by measuring the fluorescence intensity in plasma, and using a standard curve to determine concentration (FIG. 9).
The test system of data set [3] is MDA-MB-231 human breast cancer cell line. Nature of the data set: MTT cytotoxicity assay combined with radiation (4 Gy) and/or caspase inhibitor Z-VAD-FMK. Format: cell-based. Conditions: by itself, without radiation. Here is the method:
The degree of cytotoxicity of DEVD-S-DOX was assessed using an in vitro MTT assay and combined radiation therapy in the MDA-MB-231 human breast cancer cell line. The MDA-MB-231 cell line was irradiated with radiation and the expression of caspase-3 was evaluated. Western blot (FIG. 6A) and a cellular caspase-3 activity assay (FIG. 6B) confirmed that the expression of caspase-3 increased over time.
Next, the cancer cells were cultured in a 96-well microplate at the density of 5×10^4 cell/well in DMEM (10% FBS) medium for 24 hours, and then treated with DEVD-S-DOX or 5 μM Doxorubicin. Some of the test groups were also treated with Z-VAD-FMK, which is a caspase inhibitor. Then cells were irradiated with 4 Gy of radiation, and after 24 and 48 hours, cell viability was assessed against the controls using an MTT assay (FIG. 7). […] This confirmed that caspase-3 was expressed via radiation therapy in the cancer cells, which then activated DEVD-S-DOX and led to a synergistic cytotoxic effect.
A general note: Formazan colour is commonly taken as a measure of viable cells.

Data set [4] has as its system human breast cancer cells MDA-MB-231. In words: MTT cytotoxicity assay with or without human recombinant caspase-3. Conditions: read-out: IC50 cytotoxicity (MTT); pretreated with caspase-3 (500 ng/mL), 48 hours.
Method: The cytotoxicity of DEVD-S-DOX in human breast cancer cells MDA-MB-231 was assessed using MTT assay with or without the treatment with human recombinant caspase-3. After the cancer cells were placed on a 96-well microplate at the concentration of 5×10^4 cell/well and cultured in DMEM (10% FBS) media for 24 hours, doxorubicin, DEVD-S-DOX, and DEVD-S-DOX, pre-treated with caspase-3 (500 ng/mL), were added at concentrations ranging from 0.01-100 μM, and further cultured for 48 hours. After that, 10 μL of MTT agent were added to each well and cultured for 2 hours at 37° C. until a blue precipitate forms. At this point, 100 μL of detergent agent was added and cultured for 4 hours at room temperature. Optical density was measured in each well at 570 nm to determine cell viability.
The next data set in a line: in vivo. The settings on record: Sprague Dawley, rat.
The subject of another data set is MDA-MB-436 xenograft. In words: MDA-MB-436 xenograft, daily oral dosing with or without olaparib. Conditions: monotherapy, 50 mg/kg intraperitoneal, 5 days on/2 days off for two weeks. Format: in vivo, female NSG SCID mouse. As for the experimental part:
Human breast cancer MDA-MB-436 cells were transplanted into a female NSG SCID mouse, and when the cancer tumor size reached 100-150 mm^3, 3 mg/kg of DEVD-S-DCX/DCK (based on the docetaxel content), was orally administered daily. 50 mg/kg of olaparib was administered by intraperitoneal injection daily for the first five days of every week for two weeks (5 days on/2 days off). In addition, a test group without olaparib was daily orally administered 3 mg/kg DEVD-S-DCX/DCK (based on the docetaxel content).

Method for in vivo: as §1

`COc1cccc2c1C(=O)c1c(O)c3c(c(O)c1C2=O)C[C@@](O)(C(=O)CO)C[C@@H]3O[C@H]1C[C@H](NC(=O)OCc2ccc(NC(=O)[C@H](CC(=O)O)NC(=O)[C@@H](NC(=O)[C@H](CCC(=O)O)NC(=O)[C@H](CC(=O)O)NC(=O)CNC(=O)[C@H](CCCCN)NC(C)=O)C(C)C)cc2)[C@H](O)[C@H](C)O1` [DEVD-S-DOX, Ac-KGDEVD-PABC-Doxorubicin] (Ac-KGDEVD[PABC]-{Doxorubicin(3'-N)}) gave a BASO in data set [1] of 1.0 ± 0.5%. In addition, the MONO in data set [1] (normal range 1.0-5.0) is listed as 6.8 ± 1.7%. In data set [1] (normal range 4.0-15.0), this compound registered a WBC of 12.8 ± 5.4 m/mm^3. The RBC in data set [1] (normal range 6.0-11.0) is 7.1 ± 1.4 M/mm^3. In addition, the Segment in data set [1] (normal range 10.0-30.0) amounted to 18.2 ± 0.7%. In data set [1] (normal range 13.0-22.0), this compound showed an MCH of 16.4 ± 1.8 pg. In addition, the Hb in data set [1] (normal range 14.0-18.0) worked out at 11.4 ± 1.3 g/dL. This compound also displayed an MCHC in data set [1] (normal range 24.0-40.0) of 33.4 ± 3.8 g/dL. This compound also displayed a Hct in data set [1] (normal range 35.0-45.0) of 35.1 ± 7.2%. In addition, in data set [1] (normal range 35.0-50.0), the MCV amounted to 49.2 ± 7.2 fL. Further, the Lympho in data set [1] (normal range 70.0-81.0) worked out at 71.0 ± 4.9%. The Platelet in data set [1] (normal range 600-1000) worked out at 1008 ± 392 m/mm^3. The same compound yielded an EOS in data set [1] (normal range <10.0) of 2.8 ± 1.4%. The Cmax in data set [2] (iv, 1 mg/kg) was 3370 ± 310 ng/mL. For the same compound, in data set [2] (po, 10 mg/kg), the Cmax is 72 ± 33 ng/mL and the “BA (bioavailability)” value is “negligible bioavailability”. The “cytotoxicity (MTT)” value in data set [3] was “did not show any noticeable cytotoxicity”. Further, the IC50 in data set [4] amounted to 1780 nM. In addition, in the data set “in vivo” (iv, 1 mg/kg), the total exposure AUC(0-inf) was determined as 3370 ± 250 ng·h/mL, the AUC(0-t) was determined as 3110 ± 290 ng·h/mL and the MRT worked out at 2.01 ± 0.28 h. Further, in the data set “in vivo” (po, 10 mg/kg), the total exposure AUC(0-inf) was determined as 130 ± 60 ng·h/mL, the exposure AUC(0-t) was 100 ± 50 ng·h/mL, the MRT came out at 1.18 ± 0.03 h and the Tmax amounted to 1 h. In addition, the bioavailability in the data set “in vivo” (po, 10 mg/kg) stood at 0.45 ± 0.22%.

Turning to `O=C(c1cc(Cc2n[nH]c(=O)c3ccccc23)ccc1F)N1CCN(C(=O)C2CC2)CC1` [olaparib], the tumor growth suppression entry in the data set with MDA-MB-436 xenograft is reported as “ineffective”.

The Cmax is the peak of the concentration-time curve. What is called IC50 is the concentration that gives 50% inhibition. The AUC(0-inf) is the area under the concentration-time curve extrapolated to infinity. As usually defined, the AUC(0-t) is exposure summed from dosing to a finite time, without extrapolation to infinity. Broadly, the MRT is a mean duration of stay, worked out from the concentration-time curve. The Tmax is the time from dosing to the highest level. As usually defined, the bioavailability is the share of a dose that reaches the circulation, judged against a reference dose that is usually intravenous. High values mean good availability, low ones poor availability.
